# Measured values as given in US11892449B2, “Therapeutics and point of care lateral-flow test for virus and antibodies using tagged assembled proteins” (priority 2021, dated 2024).
# B1: HIF1α-MAP-1 (protein)
# chain: MRGSHHHHHHGSACELAATATATATATATAACGDLAPQMLRELQETNAALQDVRELLRQQVKEITFLKNTLLEIWKAAKEAAKEAAAKIEEQAKTFLDKFNGEELLRALDQVN
# B2: H-MAP-2 (protein)
# chain: MRGSPKKKRKVGGGGSHHHHHHHHGSACELAATATATATATATAACGDLAPQMLRELQETNAALQDVRELLRQQVKEITFLKNTLLEIWKAAKEAAKEAAAKIEEQAKTFLDKFNGEELLRALDQVN
# What was measured:
# p300 = experiment: ELISA binding to p300, total binding kinetics; conditions: for Kd: ELISA, average of three independent trials
# From the text: FIG. 21. H-MAP1 (H-MAP) and H-MAP2 ELISA fitted with total binding kinetics using Prism 7 (GraphPad) with calculated binding affinities as an average of three independent trials.
# HIF1α = experiment: Hypoxia-inducible luciferase reporter in MDA-MB-231 cells; type: cell-based; conditions: MDA-MB-231-Luciferase cells, hypoxia induced with 100 μM CoCl2, increasing concentrations
# From the text: FIG. 22. […] Results are normalized to maximum luciferase intensity of two independent trials.
# We will further characterize the HIF1α-MAP1 and iterative HIF1α-MAP designs as described in the following section. For example, to increase the likelihood of translocation to the nucleus, HIF1α-MAP-2 (H-MAP-2) was designed by addition of nuclear localization sequence, PKKKRKV (SEQ ID NO:7), at the N-terminus. […] To test the ability of HIF1α-MAPs to modulate hypoxia-inducible signaling, HIF1α-MAP-2 was incubated with triple negative breast cancer cell line, MDA-MB-231, stably transfected a construct to express firefly luciferase under normoxic and hypoxic (induced with final concentration 100 μM CoCl2) conditions.
Molecule,Kd (p300) [nM],fold improvement in comparison to native HIF1α (p300; binding to p300) [fold],expression of luciferase (hypoxia-inducible gene expression) (HIF1α),expression of luciferase (hypoxia-inducible gene expression) (HIF1α; listed as HIF1α-MAP-2)
native HIF1α [reference compound],0.38,–,–,–
B1,0.00808,47,–,–
B2,0.0382,–,inhibitions of HIF1α,decreased expression of luciferase
